The source of these data is patent US20200055934A1.

Like-named read-outs stand apart in the source and are kept apart here.

Assay in all cases: cell-based or functional assay
Experiment [1] deals with Receptor for Advanced Glycation Endproducts (RAGE), human, full length (human) (UniProt Q15109).
Experiment [2] has the same target. The source holds these as a separate data set.
Experiment [3] shares this target. This is another data set of the same source.

Sequence of UniProt Q15109 (Q15109 23-404 limits assumed): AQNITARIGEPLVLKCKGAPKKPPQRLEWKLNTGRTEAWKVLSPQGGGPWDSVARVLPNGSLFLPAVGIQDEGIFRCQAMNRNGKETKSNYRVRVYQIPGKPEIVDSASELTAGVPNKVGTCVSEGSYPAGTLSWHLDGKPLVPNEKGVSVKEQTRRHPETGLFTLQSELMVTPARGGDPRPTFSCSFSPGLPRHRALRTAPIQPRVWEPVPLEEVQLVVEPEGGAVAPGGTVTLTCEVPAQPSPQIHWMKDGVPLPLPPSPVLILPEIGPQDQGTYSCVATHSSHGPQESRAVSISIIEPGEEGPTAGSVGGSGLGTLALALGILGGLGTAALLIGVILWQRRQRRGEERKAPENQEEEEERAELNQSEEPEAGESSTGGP

Consider “SNIPER-MMAF (MAB11451 conjugated with mcMMAF) (antibody)”, for which, in experiment [1], the IC50, cell viability, HEC1A endometrial cancer cells, 24 h was determined as 24.1 mg/L; the IC50, cell viability, HEC1A endometrial cancer cells, 48 h is 0.81 mg/L; the IC50, cell viability, HEC1A endometrial cancer cells, 96 h came to 0.74 mg/L; the IC50, cell viability, HEC1B endometrial cancer cells, 48 h was found to be 1.96 mg/L. In experiment [1], this substance had an IC50, cell viability, HEC1B endometrial cancer cells, 96 h of 1.27 mg/L; an IC50, cell viability, HEC50 endometrial cancer cells, 24 h of 17.8 mg/L; an IC50, cell viability, HEC50 endometrial cancer cells, 48 h of 0.86 mg/L; an IC50, cell viability, HEC50 endometrial cancer cells, 96 h of 0.94 mg/L. In experiment [1], this substance yielded an IC50, cell viability, Ishikawa endometrial cancer cells, 24 h of 16.7 mg/L; an IC50, cell viability, Ishikawa endometrial cancer cells, 48 h of 6.48 mg/L; an IC50, cell viability, Ishikawa endometrial cancer cells, 96 h of 2.42 mg/L; an IC50, cell viability, TOV112D ovarian cancer cells, 48 h of 2.51 mg/L. In experiment [1], the IC50, cell viability, TOV112D ovarian cancer cells, 96 h is 0.59 mg/L; the IC50, cell viability, healthy endometrial cells, 48 h turned out to be 7.25 mg/L; the IC50, cell viability, healthy endometrial cells, 96 h amounted to 4.17 mg/L; the IC50, cell viability, healthy ovarian cells, 48 h came to 14.4 mg/L. The same substance registered an IC50, cell viability, healthy ovarian cells, 96 h in experiment [1] of 4.87 mg/L. Further, in experiment [2], the IC50, cell viability, Ishikawa endometrial cancer cells, 24 h worked out at 16.7 mg/L. This substance came in with an IC50, cell viability, TOV112D ovarian cancer cells, 24 h in experiment [3] of 2.5 mg/L.

Take “SNIPER-MMAE (MAB11451 conjugated with vcMMAE) (antibody)”: in experiment [1], the IC50, cell viability, HEC1A endometrial cancer cells, 24 h was 10.3 mg/L; the IC50, cell viability, HEC1A endometrial cancer cells, 48 h is 4.69 mg/L; the IC50, cell viability, HEC1A endometrial cancer cells, 96 h was determined as 1.02 mg/L; the IC50, cell viability, HEC1B endometrial cancer cells, 24 h was found to be 29 mg/L. In experiment [1], this substance gave an IC50, cell viability, HEC1B endometrial cancer cells, 48 h of 8.65 mg/L; an IC50, cell viability, HEC1B endometrial cancer cells, 96 h of 5.67 mg/L; an IC50, cell viability, HEC50 endometrial cancer cells, 48 h of 7.64 mg/L; an IC50, cell viability, HEC50 endometrial cancer cells, 96 h of 2.18 mg/L. In experiment [1], this substance displayed an IC50, cell viability, Ishikawa endometrial cancer cells, 24 h of 31 mg/L; an IC50, cell viability, Ishikawa endometrial cancer cells, 48 h of 9.54 mg/L; an IC50, cell viability, Ishikawa endometrial cancer cells, 96 h of 3.86 mg/L; an IC50, cell viability, TOV112D ovarian cancer cells, 24 h of 22.6 mg/L. In experiment [1], the IC50, cell viability, TOV112D ovarian cancer cells, 48 h was 16.2 mg/L; the IC50, cell viability, TOV112D ovarian cancer cells, 96 h stood at 0.54 mg/L; the IC50, cell viability, healthy endometrial cells, 48 h is 10.7 mg/L; the IC50, cell viability, healthy endometrial cells, 96 h was determined as 15.2 mg/L. In experiment [1], this substance showed an IC50, cell viability, healthy ovarian cells, 96 h of 41 mg/L. This substance also showed an IC50, cell viability, TOV112D ovarian cancer cells, 24 h in experiment [3] of 16.7 mg/L.
